Measurements as given in paper PMC11915744.
pKd: −log10 of the molar value.

Target: NS1 used in the SPR assay (UniProt P03496)
Assay: SPR

Sequence of UniProt P03496 (P03496 whole entry): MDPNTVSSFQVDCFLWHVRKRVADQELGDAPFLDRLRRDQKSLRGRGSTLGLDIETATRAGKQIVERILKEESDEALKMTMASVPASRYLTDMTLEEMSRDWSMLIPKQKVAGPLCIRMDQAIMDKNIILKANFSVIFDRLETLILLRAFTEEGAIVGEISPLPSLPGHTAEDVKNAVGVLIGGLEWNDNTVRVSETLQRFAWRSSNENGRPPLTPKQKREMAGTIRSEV

## hnRNPH1 used in the SPR assay (from UniProt P31943 1-449) (natural protein)
  pKd: 4.98
